Reference: patent US20220227814A1 (NEVADA RESEARCH AND INNOVATION, published 2022)
Bridge positions count the residues as written; N and C are the ends. Square brackets hold non-standard residues; d marks the D form. Ends that are not written are not given here. Dap = NC[C@H](N)C(=O)O

What was measured:
Assay in all cases: cell-based or functional assay
ComD1 receptor [1] = biological target: T1, ComD1 receptor (Streptococcus pneumoniae)
ComD1 receptor [2] = biological target: T1, ComD1 receptor; remark: listed apart in the source
ComD2 receptor [3] = biological target: T2, ComD2 receptor (Streptococcus pneumoniae)
ComD1 receptor [4] = biological target: T1, ComD1 receptor; remark: listed apart in the source
ComD2 receptor [5] = biological target: T2, ComD2 receptor; remark: listed apart in the source
ComD2 receptor [6] = biological target: T2, ComD2 receptor; remark: listed apart in the source

For EMRLSKFFRDFILQRKK [CSP1 (competence stimulating peptide 1)], the “EC50 (reporter strain)” value (ComD1 receptor [1]) was 10.3 nM and the “EC50 (ComD1 EC50/IC50; β-gal reporter)” value (ComD1 receptor [2]) was 10.3 nM.

In the case of EMRLSKFFRDFILDRKK (lactam 6-14) [CSP1-cyc(K6D14)], the “EC50 (reporter strain)” value (ComD1 receptor [1]) is reported as over 1000 nM and the “EC50 (reporter strain)” value (ComD2 receptor [3]) is reported as over 1000 nM.

With EMRLSKFFRDFILQRKK (lactam 6-10) [CSP1-cyc(K6D10)] the “maximal induction of comX compared to CSP1” value (ComD1 receptor [4]) was 44% and the “EC50 (reporter strain)” value (ComD1 receptor [1]) was 258 nM.

B1: CSP1-cyc(Orn6D10) (peptide)
peptide: EMRLSXFFRDFILQRKK
modifications: Orn (ornithine) at position 6; side chain-to-side chain lactam between Orn6 and Asp10
With B1 the “maximal induction of comX compared to CSP1” value (ComD1 receptor [4]) was 100%, the “fold decrease in fold potency compared to CSP1-cyc(Dab6E10) and CSP1-cyc(Dap6E10)” value (ComD2 receptor [5]) was over 30 fold and the “EC50 (reporter strain)” value (ComD1 receptor [1]) was 193 nM. The “EC50 (reporter strain)” value (ComD2 receptor [3]) was over 1000 nM.

EMRLSXFFRDFILQRKK (Dab at position 6; side chain-to-side chain lactam between Dab6 and Asp10) [CSP1-cyc(Dab6D10)] was tested, and the “EC50 (reporter strain)” value (ComD1 receptor [1]) was 59.5 nM and the “EC50 (reporter strain)” value (ComD2 receptor [3]) was over 1000 nM.

In the case of EMRLSXFFRDFILQRKK (Dap at position 6; side chain-to-side chain lactam between Dap6 and Asp10) [CSP1-cyc(Dap6D10)], the “EC50 (reporter strain)” value (ComD1 receptor [1]) is reported as 435 nM and the “EC50 (reporter strain)” value (ComD2 receptor [3]) is reported as over 1000 nM.

EMRLSKFFREFILQRKK (lactam 6-10) [CSP1-cyc(K6E10)] was tested, and the “EC50 (reporter strain)” value (ComD1 receptor [1]) was 350 nM and the “EC50 (reporter strain)” value (ComD2 receptor [3]) was over 1000 nM.

B2: CSP1-cyc(Orn6E10) (peptide)
peptide: EMRLSXFFREFILQRKK
modifications: Orn (ornithine) at position 6; side chain-to-side chain lactam between Orn6 and Glu10
In the case of B2, the “EC50 (reporter strain)” value (ComD1 receptor [1]) is reported as 422 nM and the “EC50 (reporter strain)” value (ComD2 receptor [3]) is reported as over 1000 nM.

For EMRLSXFFREFILQRKK (Dab at position 6; side chain-to-side chain lactam between Dab6 and Glu10) [CSP1-cyc(Dab6E10)], the “fold potency compared to CSP1-cyc(Orn6D10)” value (ComD1 receptor [4]) was 10 fold, the “maximal induction of comX compared to CSP1” value (ComD1 receptor [4]) was 100% and the “EC50 (reporter strain)” value (ComD1 receptor [1]) was 12.2 nM. For the same binder, the “EC50 (reporter strain)” value (ComD2 receptor [3]) was 31.4 nM.

With EMRLSXFFREFILQRKK (Dap at position 6; side chain-to-side chain lactam between Dap6 and Glu10) [CSP1-cyc(Dap6E10)] the “fold potency compared to CSP1-cyc(Orn6D10)” value (ComD1 receptor [4]) was 10 fold, the “maximal induction of comX compared to CSP1” value (ComD1 receptor [4]) was 100% and the “fold potency compared to CSP2” value (ComD2 receptor [5]) was about 4 fold. The “EC50 (reporter strain)” value (ComD1 receptor [1]) was 14.6 nM and the “EC50 (reporter strain)” value (ComD2 receptor [3]) was 13.1 nM.

For AMRLSXFFREFILQRKK (Dab at position 6; side chain-to-side chain lactam between Dab6 and Glu10) [CSP1-E1A-cyc(Dab6E10)], the “IC50 (reporter strain)” value (ComD1 receptor [1]) was 173 nM, the “EC50/IC50 (kind not distinguishable; reporter strain)” value (ComD2 receptor [3]) was over 1000 nM and the “IC50 (ComD1 EC50/IC50; β-gal reporter)” value (ComD1 receptor [2]) was 173 nM. For the same binder, the “EC50/IC50 (kind not distinguishable; β-gal reporter)” value (ComD2 receptor [6]) was over 1 µM.

In the case of AMRLS[Dap]FFREFILQRKK (lactam 6-10) [CSP1-E1A-cyc(Dap6E10)], the “fold inhibition potency compared to CSP2-E1Ad10” value (ComD2 receptor [5]) is reported as 3 fold, the “IC50 (reporter strain)” value (ComD1 receptor [1]) is reported as 75.8 nM and the “IC50 (reporter strain)” value (ComD2 receptor [3]) is reported as 182 nM. The “IC50 (ComD1 EC50/IC50; β-gal reporter)” value (ComD1 receptor [2]) was 75.8 nM and the “IC50 (ComD2 EC50/IC50; β-gal reporter)” value (ComD2 receptor [6]) was 182 nM.

In the case of EMRISRIILDFLFLRKK [CSP2 (competence stimulating peptide 2)], the “EC50 (reporter strain)” value (ComD1 receptor [1]) is reported as 1650 nM, the “EC50 (reporter strain)” value (ComD2 receptor [3]) is reported as 50.7 nM and the “EC50 (ComD1 EC50/IC50; β-gal reporter)” value (ComD1 receptor [2]) is reported as 1650 nM. For the same binder, the “EC50 (ComD2 EC50/IC50; β-gal reporter)” value (ComD2 receptor [6]) was 50.7 nM.

For AMRLS[Dap]FFREFILQR (lactam 6-10) [CSP1-E1A-des-K16K17-cyc(Dap6E10)], the “fold inhibition potency compared to CSP1-E1A-cyc(Dap6E10)” value (ComD1 receptor [4]) was about 10 fold, the “fold inhibition potency compared to CSP1-E1A-cyc(Dap6E10)” value (ComD2 receptor [5]) was 3 fold and the “IC50 (reporter strain)” value (ComD1 receptor [1]) was 7.57 nM. The “IC50 (reporter strain)” value (ComD2 receptor [3]) was 67.2 nM, the “IC50 (ComD1 EC50/IC50; β-gal reporter)” value (ComD1 receptor [2]) was 7.57 nM and the “IC50 (ComD2 EC50/IC50; β-gal reporter)” value (ComD2 receptor [6]) was 67.2 nM.

In the case of AMRLSKFFRDFILQRKK [CSP1-E1A], the “IC50 (ComD1 EC50/IC50; β-gal reporter)” value (ComD1 receptor [2]) is reported as 85.7 nM and the “EC50/IC50 (kind not distinguishable; β-gal reporter)” value (ComD2 receptor [6]) is reported as over 10 µM.

EMRLSAFFRDFILQRKK [CSP1-K6A] was tested, and the “EC50 (ComD1 EC50/IC50; β-gal reporter)” value (ComD1 receptor [2]) was 51 nM and the “EC50 (ComD2 EC50/IC50; β-gal reporter)” value (ComD2 receptor [6]) was 24 nM.

With EMRISRIIL[dD]FLFLRKK [CSP2-d10] the “EC50 (ComD1 EC50/IC50; β-gal reporter)” value (ComD1 receptor [2]) was 513 nM and the “EC50 (ComD2 EC50/IC50; β-gal reporter)” value (ComD2 receptor [6]) was 2.86 nM.

In the case of AMRISRIIL[dD]FLFLRKK [CSP2-E1Ad10], the “EC50/IC50 (kind not distinguishable; β-gal reporter)” value (ComD1 receptor [2]) is reported as over 1000 nM and the “IC50 (ComD2 EC50/IC50; β-gal reporter)” value (ComD2 receptor [6]) is reported as 56.5 nM.

For EMRLSKFFDDFILQRKK (lactam 6-9) [CSP1-cyc(K6D9)], the “EC50 (reporter strain)” value (ComD1 receptor [1]) was over 1000 nM and the “EC50 (reporter strain)” value (ComD2 receptor [3]) was 528 nM.

For EMRLSKFFDDFILQRKK [CSP1 with Arg9 replaced with Asp (linear)], the “fold reduction in potency against CSP1” value (ComD1 receptor [4]) was over 100 fold.

For EMRLSKFFRKFILDRKK (lactam 10-14) [CSP1-cyc(K10D14)], the “EC50 (reporter strain)” value (ComD1 receptor [1]) was 257 nM.
